Numbering of substitutions follows the chain as printed. In names and notes the source's numbering stands. One block for each binder: values may come before it.
Assays:
[1] = biological target: T1, Mouse profilin 2a, Q9JJV2; experiment: sedimentation equilibrium analytical ultracentrifugation; settings: chain shown with the change
T1 chain: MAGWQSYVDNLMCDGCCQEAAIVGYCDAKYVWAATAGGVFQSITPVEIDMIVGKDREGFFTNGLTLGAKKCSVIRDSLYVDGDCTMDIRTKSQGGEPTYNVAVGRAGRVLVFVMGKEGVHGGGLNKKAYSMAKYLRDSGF

Human profilin 1, P07737 = experiment: as above; settings: chain shown with the change; modeled as a 1:1 interaction
[2] = two-site, independent binding model with one site fixed to the measured non-specific affinity

B3: WAVE1 (P): human WAVE1 [277–488], wild-type proline-rich domain, Q92558 P279G; P280S; P281G; P282S; P325G; P326S; P327G; P328S; P348G; P349S; P350G; P351S; … (protein)
chain: MPLVKRNIDPRHLCHTALPRGIKNELECVTNISLANIIRQLSSLSKYAEDIFGELFNEAHSFSFRVNSLQERVDRLSVSVTQLDPKEEELSLQDITMRKAFRSSTIQDQQLFDRKTLPIPLQETYDVCEQPPPLNILTPYRDDGKEGLKFYTNPSYFFDLWKEKMLQDTEDKRKEKRKQKQKNLDRPHEPEKVPRAPHDRRREWQKLAQGPELAEDDANLLHKHIEVANGPASHFETRPQTYVDHMDGSYSLSALPFSQMSELLTRAEERVLVRPHEPGSGSPMHGAGDAKPIPTCISSATGLIENRPQSPATGRTPVFVSPTPGSGSPPLPSALSTSSLRASMTSTGSGSVPGSGSPPATALQAPAVPPPPAPLQIAPGVLHPAGSGIAGSLVQPSPPVARAAPVCETVPVHPLPQGEVQGLPPGSGSPPLGSGGIRPSSPVTVTALAHPPSGLHPTPSTAPGPHVPLMPPSPPSQVIPASEPKRHPSTLPVISDARSVLLEAIRKGIQLRKVEEQREQEAKHERIENDVATILSRRIAVEYSDSEDDSEFDEVDWLE
Kd [1, 2]: 145 µM

B4: WAVE1 (P): human WAVE1 [277–488], wild-type proline-rich domain, Q92558 P279G; P280S; P281G; P282S; P325G; P326S; P327G; P328S; P348G; P349S; P350G; P351S; … (protein)
chain: B3 chain with P369G, P370S, P371G, P372S
Kd (Human profilin 1, P07737): 813 µM | Kd ([1]; modeled as a 1:1 interaction): 138 µM

B5: WAVE1 (P): human WAVE1 [277–488], wild-type proline-rich domain, Q92558 P279G; P280S; P281G; P282S; P325G; P326S; P327G; P328S; P348G; P349S; P350G; P351S; … (protein)
chain: B3 chain with P369G, P370S, P371G, P372S, G386P, S387P, G388P, G391P, S392P
Kd [1, 2]: 182 µM

The remaining lines, values ahead:

Kd ([1]; WAVE1 (PRD [B]) 15.5 µM, Pfn2 91.2, 44.8 and 21.7 µM, 7 K, 10 K, 14 K rpm, 2:1 binding model, Kd1 fit, Kd2 = 138 µM fixed): 2.07 µM
B1: WAVE1 (P): human WAVE1 [277–488], wild-type proline-rich domain, Q92558 P279G; P280S; P281G; P282S; P348G; P349S; P350G; P351S; P354G; P355S; P356G; P357S; … (protein)
chain: B3 chain with G325P, S326P, G327P, S328P, P369G, P370S, P371G, P372S

Kd [1, 2]: 51 µM
B2: WAVE1 (P): human WAVE1 [277–488], wild-type proline-rich domain, Q92558 P325G; P326S; P327G; P328S; P348G; P349S; P350G; P351S; P354G; P355S; P356G; P357S; … (protein)
chain: B3 chain with G279P, S280P, G281P, S282P, P369G, P370S, P371G, P372S

Kd [1, 2]: 12 µM
B6: WAVE1 (P): human WAVE1 [277–488], wild-type proline-rich domain, Q92558 P279G; P280S; P281G; P282S; P325G; P326S; P327G; P328S; P369G; P370S; P371G; P372S; … (protein)
chain: MPLVKRNIDPRHLCHTALPRGIKNELECVTNISLANIIRQLSSLSKYAEDIFGELFNEAHSFSFRVNSLQERVDRLSVSVTQLDPKEEELSLQDITMRKAFRSSTIQDQQLFDRKTLPIPLQETYDVCEQPPPLNILTPYRDDGKEGLKFYTNPSYFFDLWKEKMLQDTEDKRKEKRKQKQKNLDRPHEPEKVPRAPHDRRREWQKLAQGPELAEDDANLLHKHIEVANGPASHFETRPQTYVDHMDGSYSLSALPFSQMSELLTRAEERVLVRPHEPGSGSPMHGAGDAKPIPTCISSATGLIENRPQSPATGRTPVFVSPTPGSGSPPLPSALSTSSLRASMTSTPPPPVPPPPPPPATALQAPAVGSGSAPLQIAPGVLHPAGSGIAGSLVQPSPPVARAAPVCETVPVHPLPQGEVQGLPPGSGSPPLGSGGIRPSSPVTVTALAHPPSGLHPTPSTAPGPHVPLMPPSPPSQVIPASEPKRHPSTLPVISDARSVLLEAIRKGIQLRKVEEQREQEAKHERIENDVATILSRRIAVEYSDSEDDSEFDEVDWLE

Reference: publication PMC5753033
